Data set [1] concerns the target T1, *AatIβ (periplasmic aromatic aminotransferase) (Pseudomonas aeruginosa, UniProt Q9I0V2).
T1 sequence (Q9I0V2 29-374): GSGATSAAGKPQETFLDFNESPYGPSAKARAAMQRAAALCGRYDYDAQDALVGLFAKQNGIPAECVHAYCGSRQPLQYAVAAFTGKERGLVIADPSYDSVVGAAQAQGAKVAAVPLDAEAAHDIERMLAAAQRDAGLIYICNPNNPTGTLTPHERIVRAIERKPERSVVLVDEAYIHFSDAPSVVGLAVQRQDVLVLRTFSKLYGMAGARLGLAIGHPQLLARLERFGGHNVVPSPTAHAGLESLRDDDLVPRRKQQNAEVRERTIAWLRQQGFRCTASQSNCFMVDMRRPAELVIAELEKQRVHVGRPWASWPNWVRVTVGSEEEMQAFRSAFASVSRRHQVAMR
The data set is described as follows: aromatic aminotransferase activity assay. The format is biochemical. The note with it: activity followed through purification.

In data set [2] the test system is C=C(O[C@@H]1C=C(C(=O)O)C=C[C@H]1O)C(=O)O. The data set is described as follows: purified protein. The note with it: 32°C, 40–75 nM enzyme, 0.1 mg/ml bovine serum albumin. The class given is biochemical, Pantoea agglomerans.
For data set [3] the test system is unchanged. The data set is described as follows: purified protein. The class given is biochemical, Salmonella enterica. The note with it: 32°C, 40–75 nM enzyme, 0.1 mg/ml bovine serum albumin.
Substrate in data set [4]: C=C(O[C@@H]1C=C(C(=O)O)C=C[C@H]1O)C(=O)O
As to the kind of experiment: purified protein. The format is biochemical, Pseudomonas aeruginosa. To be noted: 32°C, 40–75 nM enzyme, 0.1 mg/ml bovine serum albumin.

For the molecule `N[C@@H](Cc1ccccc1)C(=O)O` [phenylalanine], in data set [1] (co-substrate α-ketoglutarate), the “aromatic aminotransferase activity assay” value is “phenylalanine and α-ketoglutarate were used as the substrates, unless indicated otherwise”.
With `O=C(O)CCC(=O)C(=O)O` [α-ketoglutarate], in data set [1] (co-substrate phenylalanine), the “aromatic aminotransferase activity assay” value was “phenylalanine and α-ketoglutarate were used as the substrates, unless indicated otherwise”.
Take “*AroQ (Erwinia herbicola periplasmic chorismate mutase) (Pantoea agglomerans)”: in data set [2], the Km (in general, the concentration of substrate that gives half-maximal velocity) amounted to 169 µM and the catalytic constant (kcat) (commonly the maximal rate divided by the concentration of active sites) stood at 9.7 s⁻¹.
Turning to “*AroQ (Salmonella typhimurium periplasmic chorismate mutase) (Salmonella enterica subsp. enterica serovar Typhimurium)”, in data set [3], the Km turned out to be 142 µM and the kcat was determined as 8.9 s⁻¹.

B1: *AroQ (Pseudomonas aeruginosa periplasmic chorismate mutase) (Pseudomonas aeruginosa PAO1) (protein)
chain: QPLSPALQQLLSLSSQRLQLADQVAQSKAQSGKAVQDSPREEQQLQMLAGQAGSHGVGAEQVRLLFAAQIEANKLVQYRLLSRPLPDAGQAVDLERIRSRLNQLNLELLRGYAPALAELRVDDCRPRLNQALQRQVRVDRLDELHAIALSRAAGDLCHWAEL
Consider B1, for which the kcat in data set [4] stood at 6.4 s⁻¹.
